From paper PMC6155069, “Cryo-EM analysis of the T3S injectisome reveals the structure of the needle and open secretin” (Nature Communications, 2018)

B1: PrgK (inner membrane ring protein) in the purified needle complex (natural protein)
chain: CKDKDLLKGLDQEQANEVIAVLQMHNIEANKIDSGKLGYSITVAEPDFTAAVYWIKTYQLPPRPRVEIAQMFPADSLVSSPRAEKARLYSAIEQRLEQSLQTMEGVLSARVHISYDIDAGENGRPPKPVHLSALAVYERGSPLAHQISDIKRFLKNSFADVDYDNISVVLSERSDAQLQAPGTPVKRNSFATSWIVLIILLSVMSAGFGVWYYKNHYARNKKGITADDKAKSSNE
notes: PrgK, Salmonella Typhimurium SPI-1 type III secretion system, native protein in the needle complex; Native protein stood in the sample; only 20-203 was modelled; also called PrgK_(20–203); IM rings; source: endogenous, ΔflhD Salmonella SL1344 with HilA on a pBAD plasmid; needle complex purified (LDAO lysis, centrifugation, CsCl gradient, Superose 6); copies: 24
B2: PrgH (inner membrane ring protein) in the purified needle complex (natural protein)
chain: METSKEKTITSPGPYIVRLLNSSLNGCEFPLLTGRTLFVVGQSDALTASGQLPDIPADSFFIPLDHGGVNFEIQVDTDATEIILHELKEGNSESRSVQLNTPIQVGELLILIRPESEPWVPEQPEKLETSAKKNEPRFKNGIVAALAGFFILGIGTVGTLWILNSPQRQAAELDSLLGQEKERFQVLPGRDKMLYVAAQNERDTLWARQVLARGDYDKNARVINENEENKRISIWLDTYYPQLAYYRIHFDEPRKPVFWLSRQRNTMSKKELEVLSQKLRALMPYADSVNITLMDDVTAAGQAEAGLKQQALPYSRRNHKGGVTFVIQGALDDVEILRARQFVDSYYRTWGGRYVQFAIELKDDWLKGRSFQYGAEGYIKMSPGHWYFPSPL
notes: PrgH, Salmonella Typhimurium SPI-1 type III secretion system, native protein in the needle complex; Native protein stood in the sample; only 171-364 was modelled; also called PrgH_(171–364); IM rings; source: endogenous, ΔflhD Salmonella SL1344 with HilA on a pBAD plasmid; needle complex purified (LDAO lysis, centrifugation, CsCl gradient, Superose 6); copies: 24
B3: PrgI (needle protein), isolated needle filament (natural protein)
chain: MATPWSGYLDDVSAKFDTGVDNLQTQVTEALDKLAAKPSDPALLAAYQSKLSEYNLYRNAQSNTVKVFKDIDAAIIQNFR
notes: PrgI, needle protein of the Salmonella Typhimurium SPI-1 type III secretion system; the model covers residues 3-80 (lacks only the first two N-terminal residues; C-terminal residue Arg80); Helical polymer of many copies; also called the needle; PrgI_(3–80); source: non-flagellated ΔPrgI Salmonella Typhimurium complemented with PrgI and hilA on pBAD plasmid; filaments removed by vigorous stirring, …
B4: PrgI (needle protein) in the purified needle complex (natural protein, UniProt P41784 1-80, looked up)
chain: B3 chain
notes: PrgI, needle protein of the Salmonella Typhimurium SPI-1 type III secretion system, as part of the native needle complex; Not resolved at high resolution inside the needle complex; the model of the isolated needle was fitted into the C1 map; also called the needle; needle filament; source: endogenous, ΔflhD Salmonella SL1344 with HilA on a pBAD plasmid; needle complex purified (LDAO lysis, …)
B5: InvG (outer membrane secretin) in the purified needle complex (natural protein)
chain: SEKIPVTGSGFVAKDDSLRTFFDAMALQLKEPVIVSKMAARKKITGNFEFHDPNALLEKLSLQLGLIWYFDGQAIYIYDASEMRNAVVSLRNVSLNEFNNFLKRSGLYNKNYPLRGDNRKGTFYVSGPPVYVDMVVNAATMMDKQNDGIELGRQKIGVMRLNNTFVGDRTYNLRDQKMVIPGIATAIERLLQGEEQPLGNIVSSEPPAMPAFSANGEKGKAANYAGGMSLQEALKQNAAAGNIKIVAYPDTNSLLVKGTAEQVHFIEMLVKALDVAKRHVELSLWIVDLNKSDLERLGTSWSGSITIGDKLGVSLNQSSISTLDGSRFIAAVNALEEKKQATVVSRPVLLTQENVPAIFDNNRTFYTKLIGERNVALEHVTYGTMIRVLPRFSADGQIEMSLDIEDGNDKTPQSDTTTSVDALPEVGRTLISTIARVPHGKSLLVGGYTRDANTDTVQSIPFLGKLPLIGSLFRYSSKNKSNVVRVFMIEPKEIVDPLTPDASESVNNILKQSGAWSGDDKLQKWVRVYLDRGQEAIK
notes: InvG, secretin of the Salmonella Typhimurium SPI-1 type III secretion system, native protein in the needle complex; the final model covers residues 34-557 (N3 domain loop 228-251 disordered); Native protein stood in the sample; 34-557 was modelled (core 176-557 at 3.9 Å); also called InvG_(34–557); InvG_(176–557); source: endogenous, ΔflhD Salmonella SL1344 with HilA on a pBAD plasmid; needle …

How the values were obtained:
[1] = target: the molecule itself; assay: cryo-EM structure; purified needle complex; symmetrised reconstructions with atomic models: C24 IM rings 3.6 Å; signal subtraction and focussed refinement of the secretin with C15, 4.1 Å (whole) and 3.9 Å (core)
[2] = target: B2; assay: as above; conditions: both partners purified
[3] = target: B5; assay: cryo-EM structure; purified needle complex; unsymmetrised C1 reconstruction, 7.4 Å; molecular envelope, needle model fitted with Chimera; conditions: both partners purified
[4] = target: the molecule itself; assay: cryo-EM structure; isolated needle filaments, helical reconstruction in Relion, 3.3 Å (helical rise 4.33 Å, turn 63.34°), de novo model

Row | Binder | stoichiometry N [1] | binding result [2] | binding result [3] | binding result [4]
1 | B1 | 24 | binds |  | 
2 | B2 | 24 |  | binds | 
3 | B3 |  |  |  | binds
4 | B4 |  |  | binds | 
5 | B5 | 15 |  |  | 
